Measurements: paper PMC7227406, “Protein Phosphatases Type 2C Group A Interact with and Regulate the Stability of ACC Synthase 7 in Arabidopsis” (Cells, 2020)

T1: GST–ACS7 (Arabidopsis thaliana, UniProt Q9STR4 1-447)
T1 construct: ACS7, 1-aminocyclopropane-1-carboxylate synthase 7, Arabidopsis thaliana; Vector pDEST15; also called recombinant GST–ACS7; N-tagged GST–ACS7; source: E. coli BL21-CodonPlus (DE3)-RIL, purified (Glutathione-Sepharose 4B); not shown: GST, N-terminal, kept
T1 sequence (looked up): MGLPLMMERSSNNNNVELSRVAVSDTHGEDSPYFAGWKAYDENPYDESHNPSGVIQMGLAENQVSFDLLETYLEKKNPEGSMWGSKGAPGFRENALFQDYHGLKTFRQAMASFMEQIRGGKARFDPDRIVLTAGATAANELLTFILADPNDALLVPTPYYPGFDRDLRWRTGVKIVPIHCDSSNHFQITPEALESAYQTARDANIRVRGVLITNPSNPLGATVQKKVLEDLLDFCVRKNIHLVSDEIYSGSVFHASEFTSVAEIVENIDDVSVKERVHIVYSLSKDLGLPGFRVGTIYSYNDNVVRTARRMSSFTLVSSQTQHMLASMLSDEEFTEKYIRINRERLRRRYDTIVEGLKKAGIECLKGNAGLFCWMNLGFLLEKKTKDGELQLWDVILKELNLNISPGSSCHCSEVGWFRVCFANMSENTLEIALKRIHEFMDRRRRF


Target: T1, GST–ACS7
Experiment: pull-down; GST–ACS7 pre-coupled to Glutathione-Sepharose 4B, preincubated with 1 mg/mL BSA; His-tagged ABI1 or ABI2 added in EBC buffer (100 mM NaCl, 0.5% Nonidet P-40, 100 mM NaF, 200 μM sodium orthovanadate, 50 mM Tris-HCl pH 8.0), 1 h, room temperature; washes with NENT buffer at 100/200/300 mM NaCl; immunoblot with anti-GST and anti-His
Settings: both partners purified

| binding result | Binder |
| --- | --- |
| binds | His–ABI1 (enzyme, Arabidopsis thaliana, UniProt P49597 1-434, looked up, ABI1, group A protein phosphatase type 2C, Arabidopsis thaliana; Vector pDEST17; also called His-tagged ABI1; source: E. coli BL21-CodonPlus (DE3)-RIL, purified (Ni-Sepharose 6 Fast Flow)) MEEVSPAIAGPFRPFSETQMDFTGIRLGKGYCNNQYSNQDSENGDLMVSLPETSSCSVSGSHGSESRKVLISRINSPNLNMKESAAADIVVVDISAGDEINGSDITSEKKMISRTESRSLFEFKSVPLYGFTSICGRRPEMEDAVSTIPRFLQSSSGSMLDGRFDPQSAAHFFGVYDGHGGSQVANYCRERMHLALAEEIAKEKPMLCDGDTWLEKWKKALFNSFLRVDSEIESVAPETVGSTSVVAVVFPSHIFVANCGDSRAVLCRGKTALPLSVDHKPDREDEAARIEAAGGKVIQWNGARVFGVLAMSRSIGDRYLKPSIIPDPEVTAVKRVKEDDCLILASDGVWDVMTDEEACEMARKRILLWHKKNAVAGDASLLADERRKEGKDPAAMSAAEYLSKLAIQRGSKDNISVVVVDLKPRRKLKSKPLN |
| binds | His–ABI2 (enzyme, Arabidopsis thaliana, UniProt O04719 1-423, looked up, ABI2, group A protein phosphatase type 2C, Arabidopsis thaliana; Vector pDEST17; also called His-tagged ABI2; source: E. coli BL21-CodonPlus (DE3)-RIL, purified (Ni-Sepharose 6 Fast Flow)) MDEVSPAVAVPFRPFTDPHAGLRGYCNGESRVTLPESSCSGDGAMKDSSFEINTRQDSLTSSSSAMAGVDISAGDEINGSDEFDPRSMNQSEKKVLSRTESRSLFEFKCVPLYGVTSICGRRPEMEDSVSTIPRFLQVSSSSLLDGRVTNGFNPHLSAHFFGVYDGHGGSQVANYCRERMHLALTEEIVKEKPEFCDGDTWQEKWKKALFNSFMRVDSEIETVAHAPETVGSTSVVAVVFPTHIFVANCGDSRAVLCRGKTPLALSVDHKPDRDDEAARIEAAGGKVIRWNGARVFGVLAMSRSIGDRYLKPSVIPDPEVTSVRRVKEDDCLILASDGLWDVMTNEEVCDLARKRILLWHKKNAMAGEALLPAEKRGEGKDPAAMSAAEYLSKMALQKGSKDNISVVVVDLKGIRKFKSKSLN |
